Measured values from the nanobody polyreactivity screen of Harvey et al. (2022).

Experiment: yeast display, Sf9 membrane polyspecificity reagent, FACS + sequencing; frameworks hold sequencing errors
In short: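 Synthetic nanobody libraries on Saccharomyces cerevisiae BJ5465 were galactose-induced for 36–48 hours, stained 1 hour at 4 °C with 10% biotinylated, detergent-solubilized Sf9 membrane reagent and enriched on streptavidin microbeads. FACS then separated cells into low and high (top ~1%) gates by anti-HA (expression) and streptavidin (reagent binding) fluorescence. Genes were colony-PCR amplified, MiSeq 2 × 250 sequenced and CDR-length filtered. A clone's polyreactivity label is that of its gate of origin.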

Row | Sequence | polyreactivity (PSR sort gate)
1 | QVQLVESGGGLVQAGGSLRLSCAASGRILYRYDMGWYRQAPGKERELVAAISRRGGSTTYADSVKGRFTISRDNAKNTVYLQMNSLKPEDTAVYYCATDYKYAAPTVIESDYWGQGTEVTVSS | high polyreactivity
2 | QVQLVESGGGLVQAGGSLRLSCAASGRILYSYAMGWYRQEPGKERELVAAISSTGSTYYADSVKGRFTISRDNAKNTVYLQMISLKPEDTAVYYCAATFYPYQVHHYYYWGQGTQVTVSS | low polyreactivity
3 | QVQLVESGGGLVQAGGSLRLSCAASGRILYSYTMGWYRQAPGKEREFVAAITRSGGGTYYADSVKGRFTISRDNAKNTVYLQMNSLKPEDTAVYYCAYYTYYLAYGYWGQGTQVTVSS | high polyreactivity
4 | QVQLVESGGGLVQAGGSLRLSCAASGRILYVYVMGWYRQAPGKERELVAAITTSGDSTYYADSVKGRFTISRDNAKNTVYLQMNRLKPEDTAVYYCNAEEHDYVAHMDYWGQGTQVTVSS | low polyreactivity
5 | QVQLVESGGGLVQAGGSLRLSCAASGRILYYSVMGWYRPAPGKERELVAAISSGGDTNYADSVKGRFTISRDNAKNSVYLQMNSLKPEDTAVYYCARGVDGILWTSEYDYWGQGTQVTVSS | low polyreactivity
6 | QVQLVESGGGLVQAGGSLRLSCAASGRILYYYAMGWYRQAPGKERELVATITRTTGSTYYADSVKGRFTISRDNAKNTVYLQMNSLKPEDTAVYYCAARWGRWIRDNYWGQGTQVSVSS | high polyreactivity
7 | QVQLVESGGGLVQAGGSLRLSCAASGRINLYNAMGWYRQAPRKEMELVAVISYRGGSTYYADSVKGRFTISRENAKNTVYLQMNSLKPDDTAVYYCNKDKSYSGTRYDYWGQGTQVTVSS | high polyreactivity
8 | QVQLVESGGGLVQAGGSLRLSCAASGRIQSVYAMGWYRQAPGKERELVAAIDYSGGSTNYADSVKGRFTISRDNGKNTVYLQMNSLKPEDTAVYYCNREGGAIAWRYLLEYLYSWGQGTQVTVSS | low polyreactivity
9 | QVQLVESGGGLVQAGGSLRLSCAASGRIQYNAMGWYSQAPGKEREFGAAISWSGGTTYYADSVKGRFTISRDTAKNTVYLQMNSLKPEDTAVYYCATPYTHWGQGTQVTVSS | high polyreactivity
10 | QVQLVESGGGLVQAGGSLRLSCAASGRISGVNAMGWSRQAPGKERELVATISGSGGRTYYADSVKGRFTISRDNAKNTVYLQMNSLNPEDTGGYYCNSMVERGGYFSRRFDFWGQGSQVTVSS | low polyreactivity
11 | QVQLVESGGGLVQAGGSLRLSCAASGRISGYNAMGWYRPAPGKQRELVAVITGSGGTYYADSVKGRFTISRDNAKNTVYLQMNSLKPEDSAVYYCAAGLAIRTYYPRYDYWGQGTQVTVSS | low polyreactivity
12 | QVQLVESGGGLVQAGGSLRLSCAASGRISIIYAMGWYRQAPGKERELVARISGSGGSTNYADSVKGRFTISRDNAKNTVYLQMKSLKPEDTAVYYCAAVPWRIHKYYYWGQCTQVTVSS | high polyreactivity
13 | QVQLVESGGGLVQAGGSLRLSCAASGRISKIYAMGWYRQAPGKERELVAAINSGGSTNYADSVKGRFTISRDNAKNTVYLQLNSLKPEDTAVYYCAATFKSGMDYWGQGTQVTVSS | high polyreactivity
14 | QVQLVESGGGLVQAGGSLRLSCAASGRISLGYAMGWYRQAPGKERELVAAITRGGTTSYAHSVKGRFTISRDNAKNTVYLQMNSLKPEDTAVYYCAVPAGYFGKWTYYYWGQGTQVTVSS | high polyreactivity
15 | QVQLVESGGGLVQAGGSLRLSCAASGRISLHNTIGWYRQAPGKERELVAAINYSGGSTYYADTVKGRFTISRDNAKNTVYLQMNSLKPEDTEVYYCAADFYQSHFYRPRYDYWGQGTQVTVSS | low polyreactivity
16 | QVQLVESGGGLVQAGGSLRLSCAASGRISNFYSMGWYIQAPGKERELVAANRSGGSTNYADSVKGRFTISRDNAKYTVYLQMNSLKPEDTAVYYCAAVTGASPTRMDYWGQGTQVTVSS | high polyreactivity
17 | QVQLVESGGGLVQAGGSLRLSCAASGRISQYNAMGWYRQAPGKERELVATITRGGSTYYADSVKGRFTISRDNAKNTVYLQMNSLKPEDTAVYYCATDRYWWSGFDYWGQGTQVTVSS | high polyreactivity
18 | QVQLVESGGGLVQAGGSLRLSCAASGRISVFYAMGWYRQAPGKEMELGAAITRSGTTKYADSVKGRFTISRDNAKNTVYLQMNSLKPEDTAVYYCAARSVYYKFGYYYWGQGSQVTVSS | high polyreactivity
19 | QVQLVESGGGLVQAGGSLRLSCAASGRISVFYTRGWYRQAPGKERELVAVIRTSGGRTNYADSVKGRFTISRDNAKNTVYLQMNSLKPEDTAVYYCAARVVRYGYKYYYWGQGTQVTVSS | low polyreactivity
20 | QVQLVESGGGLVQAGGSLRLSCAASGRITGINAMGWYRPAPGKERELVAAITWRGGRKYYADSVKGRFTISRDNAKNTVYLQMNSLKPEDTAVYYCAAELQGAYYFAYYYWGQGTQVNVSS | high polyreactivity
21 | QVQLVESGGGLVQAGGSLRLSCAASGRIVDIYAMGWYRQAPGTERELVAAITWRGGSTYYADSVKGRFTISRDNAKNTVYLQMNSLKPEDTAVYYCAVDFFTPRGSYYWGQGTQVTVSS | low polyreactivity
22 | QVQLVESGGGLVQAGGSLRLSCAASGRIVFYAMGWYRQAPGKERELVAAITGSGGRTYYADSVKGRFTISRDNAKITVYLQMNSLKPEDTAVYYCAARKWRHGYQGDYWGQGTQVTVSS | high polyreactivity

Row | Sequence | polyreactivity (PSR sort gate)
23 | QVQLVESGGGLVQAGGSLRLSCAASGRIVGFYGMGWYRQAPGKERELVARITVGGGSTYYADSVKGRFTISRDNAKNTGYLQMNSLKPEDTAVYYCNAVYARYGSQGYEYWGQGTQVTVSS | high polyreactivity
24 | QVQLVESGGGLVQAGGSLRLSCAASGRIVRFYGMGWYRQAPGKERELVAAITDGCGTNYADSVKGRFSISRDNAKNTVYLQMNSLKPEDTAVYYCAADSRFVWSGEYWGQGTQVTVSS | low polyreactivity
25 | QVQLVESGGGLVQAGGSLRLSCAASGRIVYVNVMGWYRQAPGKERELVAAINWSDGSTYYADSVKGRFTISRDNAKNTVYLQMNSLKPEETAVYYFNRRGPYGYKAWAIGTIGDLDYWGHGTQVTVSS | low polyreactivity
26 | QVQLVESGGGLVQAGGSLRLSCAASGRIWLYAMGWYRQAPGKERELVAAISWTDGRTRYADSVKGRFTISRDNAKNTVYLQMNRLKPEDTAVYYCAPVVDRGYRRVKYYYWGQGTQVSVSS | high polyreactivity
27 | QVQLVESGGGLVQAGGSLRLSCAASGRIYAMGWYRQAPGKERELVAAISRGGSTYYADSVKGRFTISRDNAKNTVYLQMNSLKPEDTAVYYCARRYASTGYDYWGQCTQVTVSS | high polyreactivity
28 | QVQLVESGGGLVQAGGSLRLSCAASGRIYDRYDMVWYRQAPVKERELVAAISSGGSTYYADSVKGRFTISRDNAKNTVYLQMNSLKPEDTAVNNCAADRRSKYDYWGQGTQVTVSA | low polyreactivity
29 | QVQLVESGGGLVQAGGSLRLSCAASGRIYDYMGWYRQAPGKERELVAAITSSGVSTYYADSVKGRFTISRDNAKNTVYLQMNSLKPEDTAVYYCAAERVYIVWFTHEIFNYWGQGTQVTVSS | high polyreactivity
30 | QVQLVESGGGLVQAGGSLRLSCAASGRIYGKYAMGWSRQAPGKERELVASISYSGGSTYYADSVKGRFTISRDNAKNTVYLHMISLKPEDTAVYYCAARKWRYGRYVYWGQGTQVTVSS | high polyreactivity
31 | QVQLVESGGGLVQAGGSLRLSCAASGRIYGVYALGWYRQAPGKERELVAAITSSGGSTYYADSVKGRFTISRDNAKNTVYLQMNSLKPEDTAVYYCAADNTFRDDYFLYYLFNYNYWGQGTQVTVSS | low polyreactivity
32 | QVQLVESGGGLVQAGGSLRLSCAASGRIYKRNAMGWYRQAPGKERELVAAITGNVGSTYYADSVKGRFTISRDNAKNTVYLQMNSLKPEDTAVYYCAAETYPVWGVAFYYWGQGTQVTVSS | high polyreactivity
33 | QVQLVESGGGLVQAGGSLRLSCAASGRIYNGNAMGWYRQAPGKERELVAAITSDGSTYADSVKGRFTISRDNAKNTVYLHMNSLKPEATADYYCATDDPLAYGSFGPYQPYDYWGQGTQVTVSS | low polyreactivity
34 | QVQLVESGGGLVQAGGSLRLSCAASGRIYNPNGMGWYRQAPGKERELVAVITRSGTSTYYADSVKGRFTISRDNAKNTVYLQMNSLKPEDTAVYYCNAGKKYVDYGGPSSRYYWGQGTQVTVSS | low polyreactivity
35 | QVQLVESGGGLVQAGGSLRLSCAASGRIYRDYAMGWYRQAPGKERELVATITWSGATTYYADSVKGRFTISRDNAKNTVYLQMNSLKPEDTAVYYCAKVYPRFYTFGEYNYWGQGTQVTVSS | low polyreactivity
36 | QVQLVESGGGLVQAGGSLRLSCAASGRIYSQYDMGWYRQAPGKESELVAAISGGVGTNYADSVKGRFTISRDNAKNTVYLQMNSLKPEDSAVYYCAADVGYLGRSRGYPSDDYDYWGQGTQVTVSS | low polyreactivity
37 | QVQLVESGGGLVQAGGSLRLSCAASGRIYSVYAMGWYRQAPGKERELVAAIRSGDRTNYADSVKGRFTISRDNAKNTVYLQMNSLKPEDTAVYYCAAVQRPYYYWGQGTQVTVSS | high polyreactivity
38 | QVQLVESGGGLVQAGGSLRLSCAASGRIYVNAMGWYIQAPGKERELVAAIRSGGSTNYADSVKGRFTISRDNAKNTVYLQMNSLKPEDTAVYYCNARRRDYRHWYDYWGQGTQVTVSS | high polyreactivity
39 | QVQLVESGGGLVQAGGSLRLSCAASGRIYWNDMGWYIQAPGKERELVAAISWGGDRTYYADSVKGRFTISRDNAKNTVYLQMNSLKPEDTSVYYCNAPGYLTYDHSYDYWGQGTQVTVSS | low polyreactivity
40 | QVQLVESGGGLVQAGGSLRLSCAASGRIYWNTMGWYRQAPGKERELVASISTGGGRTYYADSVKGRFTISRDNAKNTVYLQMNSLKPEDTAVYYCAVRSYGHGFDYWGQGTQVTVSS | high polyreactivity
41 | QVQLVESGGGLVQAGGSLRLSCAASGRIYWYYAMGWYRQAPGKERELVATISYGGGNTYYADTVKVRFTISRDNAKNTVYLQMNSLNPEDTAVYYCARVPYAYLPYKPFQQYSYDYWGQGTQVTVSS | high polyreactivity
42 | QVQLVESGGGLVQAGGSLRLSCAASGRKLSWNTMGWYRQAPGKETELVACITQNVGSTYYADSVKGRFTISRDNAKNTVYIQMKSLKPEDTAVYYCAAKRLSWHRYGYWGQGTQETVSS | low polyreactivity
43 | QVQLVESGGGLVQAGGSLRLSCAASGRNFAPNAMGWYRQAPGKERELVAAISGSGTSTYYADSVKGRFTISRDNAKNTVYLQMNSLKPEDTAVYYCAKSARGRRGGFDYWGQGTQVTVSS | low polyreactivity
